Data: patent US12241099B2, “Peptide therapeutics for treating Alzheimer's disease and related conditions” (The Board of Regents of the University of Oklahoma, priority 2018, dated 2025)
Residues, ends and D or L forms follow the SMILES beside them. No end group written: not given here.

B1: CAP37: cationic antimicrobial protein of molecular weight 37 KDa, full-length, purified from human neutrophils (protein)
chain: IVGGRKARPRQFPFLASIQNQGRHFCGGALIHARFVMTAASCFQSQNPGVSTVVLGAYDLRRRERQSRQTFSISSMSENGYDPQQNLNDLMLLQLDREANLTSSVTILPLPLQNATVEAGTRCQVAGWGSQRSGGRLSRFPRFVNVTVTPEDQCRPNNVCTGVLTRRGGICNGDGGTPLVCEGLAHGVASFSLGPCGRGPDFFTRVALFRDWIDGVLNNPGP

Tests used:
[1] = biological target: T1, Aβ1-42 (Homo sapiens, UniProt P05067); test: ELISA binding of Aβ1-42 to plate-coated neutrophil proteins and derived peptides; details: for binding of Aβ1-42: 150 nM Aβ1-42, plate coated with protein/peptide at 5 μg/ml, no protease inhibitor; for binding of Aβ1-42 on addition of antiproteases: 1 mM PMSF (CAP37, NE) or 125 μM chymostatin (CG)
Experimental: CAP37, NE, and CG were purified from human neutrophils and purchased from Athens Research and Technology. BSA was from Sigma Aldrich. CAP37-derived peptides were synthesized by CS Bio Co with a purity >95%. Maxisorp plates from Nunc were coated with 100 μl neutrophil protein, peptide, or BSA diluted at 5 μg/ml in PBS with or without 1 mM PMSF purchased from Sigma Aldrich (for experiments with CAP37, NE, and BSA) or ±125 μM chymostatin purchased from Santa Cruz (for experiments with CG and BSA). Plate coating was done at room temperature for 2 hours with shaking and then at 4° C. overnight. Plates were washed three times in PBST (PBS+0.05% tween), then blocked with 3% BSA in PBST for 1 hour at room temperature with shaking. Plates were washed 3× in PBST, and 150 nM Aβ1-42 (purchased from Bachem and reconstituted in 1 mM NaOH) was added in 0.1% BSA in PBST and incubated 70 minutes at 37° C. Plates were then washed 4 times with PBST and monoclonal mouse anti-amyloid precursor protein/amyloid beta antibody, purchased from Cell Signaling Technology was added at a 1:500 dilution in 1% BSA in PBST and incubated for 1 hour at room temperature with shaking. Plates were washed 4× in PBST and donkey anti mouse HRP-conjugated secondary antibody from Jackson ImmunoResearch Laboratories was added at 1:10,000 in PBST and incubated 1 hour at room temperature with shaking, then washed 4 times in PBST. […] Sulfuric acid (5N) was added to each well to stop the reaction, and the absorbance at 492 nm was read on a Biotek Synergy II plate reader.

[2] = biological target: T1, Aβ1-42; test: Amyloid Beta (1-42) Thioflavin T fibrillation (aggregation) assay; type: biochemical; parameters: used to monitor the formation of Aβ1-42 peptide fibrils; purchased Anaspec; details: for inhibition of Aβ1-42 fibrillation (in words): increasing concentrations of peptide, Rfu; for molar ratio inhibitor/Aβ1-42 corresponding to IC50 of fibrillation: ratio at IC50
Experimental: The Amyloid Beta (1-42) Thioflavin T Aggregation Kit was purchased from Anaspec and used to monitor the formation of Aβ1-42 peptide fibrils, according to the manufacturer's instructions, with some modifications. Thioflavin T dye was diluted to 250 μM in fibrillation buffer A and kept in the dark until use. […] Neutrophil proteins were tested in the absence and presence of protease inhibitors. […] Chymostatin was dissolved in DMSO and used at 125 μM final concentration in reactions with CG. Reactions were pipetted up and down twice in the wells with a multichannel pipette to ensure mixing, and fluorescence (ΔEX=440 nm, ΔEm=485 nm) was read every 5 minutes for 3 hours on a BioTek Synergy 2 plate reader with Gen 5 software, with a sensitivity set at 65.

[3] = tested on: mouse neuroblastoma cell line Neuro-2a; test: Neurotoxicity assay of Aβ1-42 fibrils/oligomers (trypan blue cell death); type: cell-based; details: for effect on Aβ1-42 oligomer toxicity: oligomers formed 15 min in presence of increasing concentrations; for effect on Aβ1-42 oligomer toxicity / effect on toxicity of Aβ1-42 fibrils: 18 μM Aβ1-42 on cells, 24 hours; for effect on toxicity of Aβ1-42 fibrils: protein at IC50 of fibrillation pre-incubated with Aβ1-42 24 hours in fibrillation conditions; for concentration at which significant inhibition of oligomer toxicity starts: tested at 0.5, 1, 2 and 4-fold the fibrillation IC50
Experimental: A mouse neuroblastoma cell line Neuro-2a from ATCC was used for these experiments. Cells were grown and seeded in 96 well plates at 20,000 cells per well in complete medium (MEM α, nucleosides, no phenol red from Gibco, with 10% heat inactivated fetal bovine serum from Gibco, and penicillin/streptomycin from Lonza). At 24 hours after seeding, cells were washed with warmed MEM α, and then incubated in 90 μl MEM α+N2 Supplements+20 μl test sample (Aβ1-42 prepared as described below). Cells were incubated another 24 hours at 37° C., and then dislodged by pipetting up and down vigorously. 10 μl of cells were added to 10 μl trypan blue dye (0.4% solution) from BioRad, mixed and counted in a BioRad TC20 cell counter. The percent of living and dead cells was recorded for each well. In the case of the water and Triton X100 controls, 20 μl MEM α+N2 Supplements was added instead of the test sample and, just before counting the cells, 20 μl of medium was removed and replaced with 20 μl water or Triton X100 at a final concentration of 0.1%.
Monomeric Aβ1-42 (hexafluoroisopropanol treated Aβ1-42) from Bachem was reconstituted at 5 mM in anhydrous DMSO. Untreated Aβ1-42 from CS Bio was also used in these experiments. It was first treated with 1 mM in hexafluoroisopropanol from Sigma Aldrich, incubated 30 min at room temperature, and left open to dry in the fume hood overnight. It was then vacuum desiccated for 1 hour at room temperature. Dry films of Aβ1-42 were stored at −20° C. until use to keep it under a monomeric form. Aβ1-42 from CS Bio was also reconstituted in anhydrous DMSO at 5 mM before use.
To prepare the fibril and oligomer test samples, monomeric Aβ1-42 was placed under conditions favoring either formation of fibrils or oligomers. To form fibrils, 100 μM Aβ1-42 was added to Anaspec fibrillation buffer A±neutrophil protein, and incubated at 37° C. 24 hours before addition to the cells at a final concentration of 18 μM. Neutrophil proteins were used at Aβ/Protein ratios that led to 50% inhibition of fibrillation (IC50), previously determined for each protein in the fibrillation assay. To form oligomers, MEM α+N2 Supplements was used instead of the fibrillation buffer A±increasing concentrations of neutrophil protein or CAP37-derived peptide. Each mixture was then added to a tube containing freshly prepared Aβ1-42 in DMSO at a final concentration of 100 μM, and incubated 15 min at room temperature. These test samples were then tested on the cells at a final concentration of 18 μM.
Oligomers were formed by incubating 100 μM Aβ1-42 in MEMα+N2 Supplements at 4° C. for 3 days. […] Finally, these oligomers were added to neurons at a final concentration of 18 μM, and percent cell death was measured at 24 h.

T1 sequence (P05067 672-713 limits assumed): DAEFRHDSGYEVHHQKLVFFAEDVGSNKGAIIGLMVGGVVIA

Molecule	binding of Aβ1-42 [1]	inhibition of Aβ1-42 fibrillation (in words) [2]	effect on Aβ1-42 oligomer toxicity [3]	further results
95-122 5RMP: 95-122 with two AEEA mini-PEG molecules and 4 arginines at the N-terminal end and one arginine at the C-terminal end (RRRRLDREANLTSSVTILPLPLQNATVEAGTRR; also: two AEEA mini-PEG molecules, place not given here)	does not interact	did not inhibit fibrillation	–	–
95-122: wild-type CAP37-derived peptide 95-122 (LDREANLTSSVTILPLPLQNATVEAGTR)	did not bind	–	–	–
CSCC[C@H](NC(=O)[C@H](CO)NC(=O)[C@@H](NC(=O)[C@H](CCCNC(=N)N)NC(=O)CNC(=O)[C@H](Cc1c[nH]c2ccccc12)NC(=O)CNC(=O)[C@H](C)NC(=O)[C@@H](NC(=O)[C@@H](NC(=O)[C@H](CS)NC(=O)[C@H](CC(C)C)NC(=O)[C@@H](NC(=O)CN)[C@@H](C)O)[C@@H](C)O)C(C)C)C(C)C)C(=O)N[C@@H](CCCNC(=N)N)C(=O)N[C@@H](CCCNC(=N)N)C(=O)NCC(=O)N[C@H](C(=O)N[C@@H](CCCNC(=N)N)C(=O)N[C@H](C(=O)N[C@@H](CC(C)C)C(=O)N[C@@H](CCCNC(=N)N)C(=O)N[C@@H](CCC(=O)O)C(=O)N[C@H](C(=O)N[C@@H](CCC(N)=O)C(=O)N[C@@H](CC(C)C)C(=O)O)C(C)C)[C@@H](C)O)[C@@H](C)O [CG119-144 D137R] (H-GTLCTVAGWGRVSMRRGTRTLREVQL-OH; N-terminus and C-terminus assumed)	increased the binding	inhibitory effects	significantly decrease	effect on neurotoxicity of preformed Aβ1-42 oligomers ([3]; oligomers formed first (3 days, 4° C.), then incubated with peptide at 2×IC50 for 3 days, 18 μM on neurons, cell death at 24 h): significantly reversed; molar ratio inhibitor/Aβ1-42 corresponding to IC50 of fibrillation [2]: 1/3
CG119-144 ΔR129V130: mutant CG-derived peptide, CG119-144 with positively charged R129 (and V130) deleted (GTLCTVAGWGSMRRGTDTLREVQL)	abolished the binding	no inhibitory effect	–	–
CG: cathepsin G, full-length, purified from human neutrophils	stronger	–	significantly inhibited	effect on toxicity of Aβ1-42 fibrils [3]: significant inhibition; concentration at which significant inhibition of oligomer toxicity starts [3]: 0.5 ×IC50; binding of Aβ1-42 on addition of antiproteases [1]: not significantly changed
GTLCTVAGWGRVSMRRGTDTLREVQL (Completely synthesized in the lab. Amino acids 119-144 of Cathepsin G protein.) [CG119-144]	Highest levels	no inhibitory effect	–	–
GTLCTVAGWGRVSMRRGTDTLRPRVQL (Completely synthesized in the lab. Peptide CG119-144.) [CG119-144 E141PR]	increased the binding	inhibitory effects	–	–
GTRCQVAGWGSQRSGGRLSRFPRFVNV (Completely synthesized in the lab. Amino acids 120-146 of CAP37 protein.) [120-146 QR, wild-type CAP37-derived peptide, amino acids 120-146 of CAP37 protein]	binds	–	–	–
NE: neutrophil elastase, full-length, purified from human neutrophils	almost undetectable	–	significantly inhibited	effect on toxicity of Aβ1-42 fibrils [3]: significant inhibition; concentration at which significant inhibition of oligomer toxicity starts [3]: 2 ×IC50; binding of Aβ1-42 on addition of antiproteases [1]: significantly increased
NQGRHFCGGALIHARFVMTAASCFQ (Completely synthesized in the lab. Amino acids 20-44 of CAP37 protein.) [20-44 CC, wild-type CAP37-derived peptide, amino acids 20-44 of CAP37 protein]	binds	–	–	–
NQGRHFSGGALIHARFVMTAASCFQ (Completely synthesized in the lab. Peptide CAP3720-44C26S.) [20-44 SC, mutant CAP37-derived peptide 20-44]	binds	–	–	–
B1	stronger	–	does not inhibit	effect on toxicity of Aβ1-42 fibrils [3]: no effect; binding of Aβ1-42 on addition of antiproteases [1]: not significantly changed; molar ratio inhibitor/Aβ1-42 corresponding to IC50 of fibrillation [2]: 1/11
